The results in this text go back to US20230272011A1 (AVACTA LIFE SCIENCES, published 2023).

Changes are numbered by the printed parent chain. Numbers in names are those of the source. Where two headings read alike, the source gives them in different places.

One test addresses T1, mouse serum albumin (mouse, UniProt P07724 25-608).
T1 construct: also called MSA
The test can be described thus: BLI (Octet), biotinylated albumin on SA sensor, pH 6.0. As to the method: (§1) Biotinylated antigen was captured onto SA sensors at 1 μg/ml for 600 seconds in a buffer comprising PBS-T (0.01% Tween 20)+1% casein at either pH 6.0 or 7.4. Association was carried out for 300 seconds and dissociation for 600 seconds, and regeneration was performed using 10 mM glycine pH 1.5 (GE Healthcare) for 3×5 seconds. All steps were carried out at 1000 rpm and 25° C. Purified AFFIMER® polypeptide in two-fold serial dilutions was analyzed at a starting concentration of approximately 10× K_{D value}. Kinetics analyses were carried out using the Octet data analysis software, subtracting the reference sensor (loaded with antigen), aligning the Y-axis to baseline, and using inter-step correction to align association to dissociation. Savitzky-Golay filtering was applied and the data processed. Analysis of the data was carried out with a 1:1 model, global fit, Rₘₐₓ unlinked by sensor.

In test [1] the target is T2, cynomolgus serum albumin (cynomolgus).
T2 construct: also called CSA; cyno serum albumin
The test is described as above. As to the method:
as §1

For test [2], the target named is T3, human serum albumin (human, UniProt P02768 25-609).
T3 construct: mature; Bought protein; biotinylated in the Octet and HTRF assays; also called HSA; HuSA
The test is described as above. As for the experimental part: as §1

Test [3] deals with T2, cynomolgus serum albumin. The test can be described thus: BLI (Octet), biotinylated albumin on SA sensor, pH 7.4. As to the method: as §1
In test [4] the target is T3, human serum albumin. The test is described as above. As for the experimental part: as §1
Test [5] concerns the target T3, human serum albumin. The test can be described thus: SPR (Biacore) binding response to HSA at pH 7.4, Affimer at 50 nM. The text has this:
(§2) Final clones were sequence-verified, produced from E. coli, and affinity purified as described in Example 3.
(In SPR one partner is held on a chip, and binding of the other changes the refractive index at the surface.)

Test [6] has as its target T3, human serum albumin. The test can be described thus: SPR (Biacore) response to HSA, pH 7.4.
Source text: as §2

In test [7] the target is T3, human serum albumin. In words: SPR (Biacore), immobilised HSA, Affimer analyte. As to the method:
Affinities for mouse, human, and cynomolgus serum were also measured at pH 7.4 for four (4) AFFIMER® binders using surface plasmon resonance (SPR) (FIG. 5, Table 5). […] A concentration titration of AFFIMER® monomers was run as analyte at a flow rate of 30 μl/min or 60 μl/min. Fc2-1, Fc3-1 and Fc4-1 kinetic data was blank subtracted and fit to a 1:1 Langmuir binding model (BIAcore Evalution software; GE) to calculate KD values. […]

Test [8] concerns the target T4, human PD-L1-Fc (R&D Systems) chimeric protein (human, UniProt Q9NZQ7 19-239).
T4 construct: Bought reagent; also called rhPD-L1-Fc; huPD-L1; Fc part of the bought chimera not given, not described
The test can be described thus: binding ELISA on coated human PD-L1-Fc (table on the sheet is headed 'IC50 (nM)'; the text calls these values EC50). As to the method: Briefly, human PD-L1-Fc (R&D Systems) chimeric protein was coated on 96 well plates at […] in carbonate buffer. After saturation with 5% casein/PBS buffer, the plates were washed and a dilution of AFFIMER® polypeptides or controls were incubated for 90 minutes. Plates were then washed and a biotinylated polyclonal antibody anti-cystatin A (R&D Systems) was added for 1 hour. Plates were washed and AFFIMER® polypeptides were detected using streptavidin-HRP. After a last washing step, TMB was added for the development of the experiment and plates were read at 450 nm.
(In an ELISA, binding on a coated surface is turned into a signal by an enzyme label.)

Test [9] deals with T3, human serum albumin. The test can be described thus: binding ELISA on coated HSA, pH 7.4. As to the method: After saturation with 5% PBS Casein pH 7.5, plates were washed and a dilution of AFFIMER® polypeptides or controls were incubated for 90 minutes. Plates were then washed, and a biotinylated polyclonal antibody anti-cystatin A (R&D Systems) was added for 1 hour. Plates were washed and AFFIMER® polypeptides were detected using streptavidin-HRP. After a last washing step, TMB was added for the development of the experiment and the plates were read at 450 nm.

The target of test [10] is T4, human PD-L1-Fc (R&D Systems) chimeric …. In words: SPR (Biacore T200), PD-L1-Fc amine-coupled to CM5, Affimer analyte; apparent KD. As to the method: (§3) ILF dimer production from E. coli was performed as described in Example 3. Briefly, protein was purified using three stages: affinity capture, IEX, and preparative SEC. […] To analyze PD-L1-Fc binding kinetics, a Biacore T200 kinetic analysis was performed using running buffer HBS-EP+ and series S sensor CM5 (GE Healthcare) chip Fc2 immobilized with PD-L1-Fc (R&D Systems) in 10 mM sodium acetate pH 4.0 using amine coupling reagents (GE Healthcare). The concentration titration of ILF AFFIMER® polypeptides was run as analyte at a flow rate of 30 μl/min. […] with 3 mM NaOH (GE healthcare) for 20 seconds at 20 μl/min flow rate. The Fc2-1 data blank was subtracted and fit to a 1:1 Langmuir binding model (Biacore evaluation software; GE) to calculate an apparent KD value.

Test [11] deals with T3, human serum albumin. In words: SPR (Biacore), immobilised HSA, Affimer analyte. The source holds these as a separate data set.
Test [12] concerns the target T4, human PD-L1-Fc (R&D Systems) chimeric …. In words: SPR (Biacore T200), PD-L1-Fc amine-coupled to CM5, Affimer analyte. As to the method:
as §3

For test [13] the target is unchanged. The test can be described thus: binding ELISA on coated human PD-L1 Fc ('Anti-PD-L1 ELISA'). As for the experimental part: Briefly, human PD-L1 Fc (R&D Systems) chimeric protein was coated onto 96 well plates at 0.5 μg/mL in carbonate buffer. After saturation with 5% casein/PBS buffer, plates were washed and a dilution of conjugated AFFIMER® polypeptide or unconjugated control were incubated for 90 minutes. Plates were then washed, a biotinylated polyclonal anti-cystatin A antibody (R&D Systems) added, and the plates incubated for 1 hour. Plates were washed and bound AFFIMER® polypeptide was detected using streptavidin-HRP. After a last washing step, TMB was added and the plate was read at 450 nm.

T2 sequence (A2V9Z4 25-608): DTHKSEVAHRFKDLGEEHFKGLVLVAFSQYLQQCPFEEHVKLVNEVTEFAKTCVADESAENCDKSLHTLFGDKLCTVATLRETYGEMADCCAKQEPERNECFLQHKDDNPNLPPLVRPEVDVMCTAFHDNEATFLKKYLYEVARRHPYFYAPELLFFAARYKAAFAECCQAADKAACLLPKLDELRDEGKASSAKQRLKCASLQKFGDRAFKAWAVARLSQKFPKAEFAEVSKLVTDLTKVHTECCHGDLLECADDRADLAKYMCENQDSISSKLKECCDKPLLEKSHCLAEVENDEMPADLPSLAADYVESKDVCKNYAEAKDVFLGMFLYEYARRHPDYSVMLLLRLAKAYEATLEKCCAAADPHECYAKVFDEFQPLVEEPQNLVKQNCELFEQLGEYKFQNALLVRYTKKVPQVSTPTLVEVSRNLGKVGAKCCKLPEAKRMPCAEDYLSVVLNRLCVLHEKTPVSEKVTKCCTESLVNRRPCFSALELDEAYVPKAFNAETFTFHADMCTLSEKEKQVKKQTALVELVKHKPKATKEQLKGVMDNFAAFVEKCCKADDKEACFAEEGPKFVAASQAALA
T4 sequence (Q9NZQ7 19-239, change not shown): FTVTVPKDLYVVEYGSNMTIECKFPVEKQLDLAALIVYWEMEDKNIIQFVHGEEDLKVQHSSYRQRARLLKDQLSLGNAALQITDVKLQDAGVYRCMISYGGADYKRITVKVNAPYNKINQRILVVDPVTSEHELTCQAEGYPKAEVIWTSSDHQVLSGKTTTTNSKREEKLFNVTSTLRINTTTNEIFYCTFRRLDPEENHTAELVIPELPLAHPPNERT
T1 sequence (P07724 25-608 limits assumed): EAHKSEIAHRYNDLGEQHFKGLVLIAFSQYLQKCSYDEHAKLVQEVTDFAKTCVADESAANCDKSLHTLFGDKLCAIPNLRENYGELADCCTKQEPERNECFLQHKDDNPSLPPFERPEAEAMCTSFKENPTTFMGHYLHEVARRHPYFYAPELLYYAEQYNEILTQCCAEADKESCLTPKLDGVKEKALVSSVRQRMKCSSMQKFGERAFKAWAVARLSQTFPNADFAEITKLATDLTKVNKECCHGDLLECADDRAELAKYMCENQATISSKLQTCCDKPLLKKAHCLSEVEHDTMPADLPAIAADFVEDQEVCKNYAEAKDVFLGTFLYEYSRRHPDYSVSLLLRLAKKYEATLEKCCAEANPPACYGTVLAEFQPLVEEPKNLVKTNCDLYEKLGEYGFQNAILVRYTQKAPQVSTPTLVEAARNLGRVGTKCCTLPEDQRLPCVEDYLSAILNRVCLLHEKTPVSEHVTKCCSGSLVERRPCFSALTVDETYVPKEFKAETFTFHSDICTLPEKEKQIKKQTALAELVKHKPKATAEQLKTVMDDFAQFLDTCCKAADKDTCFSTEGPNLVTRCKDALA

B1: HSA-22 (designed binder)
chain: MIPRGLSEAKPATPEIQEIVDKVKPQLEEKTNETYGKLEAVQYKTQVLANWYQQRWPGSTNYYIKVRAGDNKYMHLKVFNGPWHNYGESSGADRVLTGYQVDKNKDDELTGFHHHHHH
In the case of B1, the Kd was 334 nM with mouse serum albumin; 146 nM in the test with cynomolgus serum albumin [1]; 44.7 nM in the test with human serum albumin [2]; 348 nM with cynomolgus serum albumin [3]; 152 nM with human serum albumin [4].

B2: HSA-41 F52A (designed binder)
chain: B1 chain with W51F, Y52A, Q54R, H84K, N85F, Y86R, G87N, E88T, S89D, S90R
In the case of B2, the “binding response” value in the test with human serum albumin [5] amounted to 2.2. Besides, in the test with human serum albumin [6], the binding result is “no binding (tested: 50 nM)”.

B3: HSA-41 F51A (designed binder)
chain: B1 chain with W51A, Y52F, Q54R, H84K, N85F, Y86R, G87N, E88T, S89D, S90R
Regarding B3, the “binding response” value in the test with human serum albumin [5] is 2.8. The binding result with human serum albumin [6] is “no binding (tested: 50 nM)”.

B4: HSA-41 W83A (designed binder)
chain: MIPRGLSEAKPATPEIQEIVDKVKPQLEEKTNETYGKLEAVQYKTQVLANFFQRRWPGSTNYYIKVRAGDNKYMHLKVFNGPAKFRNTDRGADRVLTGYQVDKNKDDELTGFHHHHHH
Take B4: in the test with human serum albumin [5], the “binding response” value was determined as 2.9. The binding result with human serum albumin [6] is given as “no binding (tested: 50 nM)”.

B5: HSA-41 R55A (designed binder)
chain: B4 chain with R55A, A83W
On to B5, for which, in the test with human serum albumin [5], the “binding response” value turned out to be 2.9. The binding result in the test with human serum albumin [6] is on record as “no binding (tested: 50 nM)”.

B6: HSA-41 W56A (designed binder)
chain: B4 chain with W56A, A83W
For the molecule B6, the “binding response” value in the test with human serum albumin [5] was 2.6. Further, the binding result with human serum albumin [6] is listed as “no binding (tested: 50 nM)”.

B7: AVA04-251 XT16 (designed binder)
chain: MIPRGLSEAKPATPEIQEIVDKVKPQLEEKTNETYGKLEAVQYKTQVLANFFQRRWPGSTNYYIKVRAGDNKYMHLKVFNGPWKFRNTDRGADRVLTGYQVDKNKDDELTGFAEAAAKEAAAKEAAAKEAAAKEAAAKEAAAKMIPRGLSEAKPATPEIQEIVDKVKPQLEEKTNETYGKLEAVQYKTQVLAREGRQDWVLSTNYYIKVRAGDNKYMHLKVFNGPWVPFPHQQLADRVLTGYQVDKNKDDELTGFAEAAAKEAAAKEAAAKEAAAKEAAAKEAAAKMIPRGLSEAKPATPEIQEIVDKVKPQLEEKTNETYGKLEAVQYKTQVLAREGRQDWVLSTNYYIKVRAGDNKYMHLKVFNGPWVPFPHQQLADRVLTGYQVDKNKDDELTGFHHHHHH
As usually defined, the koff is a measure of how fast the partners let go of each other. Read a high koff as fast dissociation. The kon is a measure of how fast the partners come together. Broadly, the EC50 is the concentration needed to bring the measured effect to its halfway point. A lower EC50 goes with a more potent agent. In the test with human serum albumin [7], B7 yielded a Kd of 3.95 nM, an off-rate (koff) of 0.00324 s⁻¹ and an on-rate constant (kon) of 821000 M⁻¹ s⁻¹. In test [8], this molecule returned an EC50 of 0.11 nM. The molecule also came in with an EC50 with human serum albumin [9] of 0.059 nM.

B8: AVA04-261 XT10 (designed binder)
chain: MIPRGLSEAKPATPEIQEIVDKVKPQLEEKTNETYGKLEAVQYKTQVLAHAYGPRDWDSTNYYIKVRAGDNKYMHLKVFNGPPADHVLEEAADRVLTGYQVDKNKDDELTGFAEAAAKEAAAKEAAAKEAAAKEAAAKEAAAKMIPRGLSEAKPATPEIQEIVDKVKPQLEEKTNETYGKLEAVQYKTQVLANFFQRRWPGSTNYYIKVRAGDNKYMHLKVFNGPWKFRNTDRGADRVLTGYQVDKNKDDELTGFHHHHHH
On to B8, for which the Kd in test [10] came to 9.44 nM; in the test with human serum albumin [11], 9.7 nM. For the same molecule, the koff in the test with human serum albumin [11] came out at 0.00291 s⁻¹; in test [12] it was 0.00826 s⁻¹. Besides, the kon with human serum albumin [11] came to 299000 M⁻¹ s⁻¹; in [12], 875000 M⁻¹ s⁻¹.

B9: AVA04-251 XT14-800 (designed binder)
chain: MIPRGLSEAKPATPEIQEIVDKVKPQLEEKTNETYGKLEAVQYKTQVLAREGRQDWVLSTNYYIKVRAGDNKYMHLKVFNGPWVPFPHQQLADRVLTGYQVDKNKDDELTGFAEAAAKEAAAKEAAAKEAAAKEAAAKEAAAKMIPRGLSEAKPATPEIQEIVDKVKPQLEEKTNETYGKLEAVQYKTQVLAREGRQDWVLSTNYYIKVRAGDNKYMHLKVFNGPWVPFPHQQLADRVLTGYQVDKNKDDELTGFAEAAAKEAAAKEAAAKEAAAKEAAAKEAAAKMIPRGLSEAKPATPEIQEIVDKVKPQLEEKTNETYGKLEAVQYKTQVLANFFQRRWPGSTNYYIKVRAGDNKYMHLKVFNGPWKFRNTDRGADRVLTGYQVDKNKDDELTGFC
modifications: IRDye 800CW conjugated with maleimide chemistry (C-terminal cysteine construct)
The EC50 (read off the curve) is the concentration needed to bring the measured effect to its halfway point. A low value points to an effect from little substance. In the case of B9, the “EC50 (read off the curve)” value in test [13] was ~0.02 nM.

B10: AVA04-251 XT14-Cys (designed binder)
single chain: B9 chain
Regarding B10, the “EC50 (read off the curve)” value in test [13] is ~0.02 nM.

B11: AVA04-251 BH-800 (designed binder)
chain: MIPRGLSEAKPATPEIQEIVDKVKPQLEEKTNETYGKLEAVQYKTQVLAREGRQDWVLSTNYYIKVRAGDNKYMHLKVFNGPWVPFPHQQLADRVLTGYQVDKNKDDELTGFAEAAAKEAAAKEAAAKEAAAKEAAAKEAAAKMIPRGLSEAKPATPEIQEIVDKVKPQLEEKTNETYGKLEAVQYKTQVLAREGRQDWVLSTNYYIKVRAGDNKYMHLKVFNGPWVPFPHQQLADRVLTGYQVDKNKDDELTGFC
modifications: IRDye 800CW conjugated with maleimide chemistry (C-terminal cysteine construct)
notes: E. coli product
Take B11: the concentration for a half-maximal effect (EC50 (read off the curve)) in test [13] is ~0.04 nM.

B12: AVA04-251 BH-Cys (designed binder)
single chain: B11 chain
Consider B12, for which, in test [13], the “EC50 (read off the curve)” value is ~0.04 nM.

B13: HSA-37 (designed binder)
chain: MIPRGLSEAKPATPEIQEIVDKVKPQLEEKTNETYGKLEAVQYKTQVLAGFWASKWPGSTNYYIKVRAGDNKYMHLKVFNGPFTAVSKKDAADRVLTGYQVDKNKDDELTGFHHHHHH
On to B13, for which the Kd in the test with mouse serum albumin was 834 nM; with cynomolgus serum albumin [1] it was 231 nM; with human serum albumin [2] it was 136 nM; with cynomolgus serum albumin [3] it was 221 nM; in the test with human serum albumin [4], 113 nM.
